The target in experiment [1] is T1, CD99 peptide containing the 10A1 epitope, Ac-GENDDPRPPNPPKPM-amide (human).
T1 chain: Ac-GENDDPRPPNPPKPM-NH2
In words: crystal structure.

Experiment [2] has as its target T2, CD99, endogenously expressed on T-ALL cells (Jurkat, KOPT-K1) (human (endogenous in Jurkat and KOPT-K1)) (UniProt P14209).
T2 sequence (chain, O-linked glycosylation): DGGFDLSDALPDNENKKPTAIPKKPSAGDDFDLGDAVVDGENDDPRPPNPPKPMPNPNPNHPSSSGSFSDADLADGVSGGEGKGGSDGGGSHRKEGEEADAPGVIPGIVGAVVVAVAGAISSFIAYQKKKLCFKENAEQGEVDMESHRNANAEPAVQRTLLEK

B1: 10A1 Fab (Fab, V domains shown)
VH: QVQLQQSGPVLVKPSQTLSLTCAISGDSISSDTTAWSWIRRSPSRGLEWLGWTYYRSKWFNYYAVSVKGRVTINPDTSKNQFSLQLSSVTPEDTAVYYCARGNGNGGMDVWGQGTTVTVSS
VL: SYVLTQPASASVSPGQTARITCSGDALPKQYAYWYQQKPGQAPVLVIFKDSERPSGVPERFSGSSSGTTVTLTISGAQAEDEADYYCQSVDNSGFYQVFGGGTQLTVL
Consider B1, for which the binding result in experiment [1] was “binds”. In experiment [2], this molecule registered an IC50 (nM Fv) of cytotoxicity, Annexin V staining of KOPT-K1 cells after 18 h of more than 2000 nM Fv.

These data come from publication PMC8897262 (Journal of molecular biology, 2021).
